In PMC10244618:
Values joined by “and” are separate entries in the source; they are usually repeats but may differ in a detail not shown here. Equal entries are not always repeated.

B1: NF2 (merlin) isoform 7, human, full length (507 aa, lacks exons 2-3 = isoform-1 residues 39-121; exon-16 C-terminus), P35240-4 (parent)
chain: MAGAIASRMSFSSLKRKQPKTFTVRIVTMDAEMEFNCEVKKQILDEKIYCPPEASVLLASYAVQAKYGDYDPSVHKRGFLAQEELLPKRVINLYQMTPEMWEERITAWYAEHRGRARDEAEMEYLKIAQDLEMYGVNYFAIRNKKGTELLLGVDALGLHIYDPENRLTPKISFPWNEIRNISYSDKEFTIKPLDKKIDVFKFNSSKLRVNKLILQLCIGNHDLFMRRRKADSLEVQQMKAQAREEKARKQMERQRLAREKQMREEAERTRDELERRLLQMKEEATMANEALMRSEETADLLAEKAQITEEEAKLLAQKAAEAEQEMQRIKATAIRTEEEKRLMEQKVLEAEVLALKMAEESERRAKEADQLKQDLQEAREAERRAKQKLLEIATKPTYPPMNPIPAPLPPDIPSFNLIGDSLSFDFKDTDMKRLSMEIEKEKVEYMEKSKHLQEQLNELKTEIEALKLKERETALDILHNENSDRGGSSKHNTIKKPQAQGRRPICI

Variants of: B1
Assay: reverse yeast two-hybrid deep mutational scan (rY2H-seq): NF2 isoform 7 mutant library as bait mated with wild-type prey strains; selection on medium lacking adenine for non-interacting pairs; NextSeq paired-end sequencing; enrichment vs …
Details: yeast diploids after mating (RBait_S3 x RPrey_S3), 30 °C, selection for reporter genes on NB agar, HIGHER = WEAKER BINDING (the opposite of display enrichments): higher = stronger loss of interaction: reverse Y2H selects yeast in which bait and prey do NOT interact (growth without adenine), so a …, hits-only table, scale: rY2H score, numbering: uniprot, sequence starts at 1
[1] = with EMILIN1 (elastin microfibril interfacer 1), Q9Y6C2, human tyrosine kinase ABL2 co-expressed as the active kinase …
[2] = with KDM1A (lysine-specific histone demethylase 1A; the table's label AOF2 is a gene synonym of KDM1A), O60341, human tyrosine kinase ABL2 co-expressed as the active kinase …
[3] = with NF2 C-terminal domain (wild type; homomeric NF2-NF2 interaction), P35240, human ABL2 co-expressed as the kinase-dead K35M mutant …, partner unresolved
[4] = with EMILIN1 (elastin microfibril interfacer 1), Q9Y6C2, human ABL2 co-expressed as the kinase-dead K35M mutant …
[5] = with PIK3R3 (phosphatidylinositol 3-kinase regulatory subunit gamma), Q92569, human tyrosine kinase ABL2 co-expressed as the active kinase …
[6] = with KDM1A (lysine-specific histone demethylase 1A; the table's label AOF2 is a gene synonym of KDM1A), O60341, human ABL2 co-expressed as the kinase-dead K35M mutant …

enrichment [1]	enrichment [2]	enrichment [3]	enrichment [4]	enrichment [5]	enrichment [6]	Variant
2.75	1.55	3.82	–	–	–	E323L
1.69	–	–	1.53	4.79	–	E323K
1.61	–	1.76	–	–	–	L355E
–	–	4.21	5.56	–	–	A378K
1.5 and 2.77	–	–	–	–	1.83	R383A
2.82	–	1.66	–	–	–	R383K
4.1	–	–	–	–	2.24	D428K
–	–	5.67	3.4	10.3	–	G486K
1.73	–	–	–	–	–	N480A
19.6	–	4.23	17.4 and 9.29	–	38.4	E259T
3.15	–	–	–	4.76	–	R363E
3.37	4.9	–	–	–	2.24 and 1.83	I307L
2.93	–	–	–	–	–	I307Y
–	–	–	2.37	–	–	E338R
1.49	–	–	–	–	–	T461I
–	–	–	3.61	–	–	A316S
3.53	–	–	5.14	3.96	–	P403R
–	–	–	2.83 and 2.82	4.51	7.31 and 3.66	Q373A
–	–	1.81	3.3	–	2.85	Q373E
2.68	3.56	–	–	–	–	K144L
–	1.94	1.47 and 2.16	1.74	–	1.79	A385L
2.57	2.39	1.49 and 2.6	–	–	3.2	Q345L

enrichment [1]	enrichment [2]	enrichment [3]	enrichment [4]	enrichment [5]	enrichment [6]	Variant
3.31	3.73	–	–	3.74	–	Q345E
1.75	–	–	2.66	–	–	K318L
–	1.54	–	1.91	–	–	K318T
5.52	3.09	–	–	5.56	3.56	K318A
–	1.81	–	3.15	–	–	K318E
–	5.01	2.36 and 4.41	6.42	–	–	G157A
7.41 and 6.52	10.1 and 8.48	1.76	1.8 and 2.26	–	2.15 and 1.62	G157L
3.64	–	–	–	7.92	–	G157K
1.67	–	–	–	–	1.47	Q324Y
2.87	–	–	–	–	4.88	D484K
–	–	–	2.01	–	–	D484A
18.6	–	–	–	–	–	L314N
–	–	2.57	6.13	–	–	I178K
2.33	–	–	–	–	–	E309A
8.53	–	–	–	–	–	L300K
2.3	–	2.18	–	–	–	L300C
3.24	–	–	–	–	–	L300R
5.21 and 8.08	–	4.75	–	10.7	6.37	L390C
4.37	–	–	6.16	5.97	–	D476K
5.43	–	–	–	–	–	D476V
2.7	–	3.74	–	–	–	R263E
–	–	–	1.89	–	–	R263T

enrichment [1]	enrichment [2]	enrichment [3]	enrichment [4]	enrichment [5]	enrichment [6]	Variant
1.44	–	–	–	–	–	R263G
–	–	–	2.14	–	1.91	R263K
–	–	–	3.17	–	–	R263L
–	–	–	2.19	–	–	A333T
–	–	–	2.14	–	1.54	E360G
2.39 and 4	–	–	–	6.05	–	T285L
2.44	–	1.48	2.89 and 5.48	6.96	5.57	E164A
–	–	–	2.27	2.53	–	E164K
–	3.19	–	1.36	–	–	Y398A
15.7	–	3.87 and 6.52	8.39	–	–	Y398E
–	6.8	12.3	3.66	–	7.87	L151S
3.71	–	–	–	–	–	L371E
2.9 and 1.56	–	2.88	–	1.38	–	L371A
4.23 and 3.34	–	–	–	–	7.44	T332E
–	–	–	1.4	2.31	–	T332L
4.79	2.16	2.4	–	–	1.86 and 5.52	T332A
2.07	–	–	4.98 and 1.87	–	–	T332D
1.61	3.13	–	1.62	2.86	2.56	P87S
1.74	–	2.73	–	–	–	F415A
–	–	–	2.9	–	–	E296L
1.68 and 2.52	–	–	1.75	–	2.69 and 1.45	I334T
–	–	–	2.5	–	–	Q327Y

enrichment [1]	enrichment [2]	enrichment [3]	enrichment [4]	enrichment [5]	enrichment [6]	Variant
2.13	–	–	–	–	–	A406K
1.8	–	–	–	–	–	K395Q
7.86 and 3.66	4.42 and 5.11	–	3.78 and 3.75	7.41	4.82 and 6.06	R113C
–	–	–	4.43	–	–	L301K
–	–	–	1.92	–	–	E382G
1.65	–	2.83	–	3 and 1.89	2.37	E382A
2.32 and 4.35	–	–	2.01	7.05	6.01	Q279K
2.35	–	–	–	–	4.82	Q279E
8.73	–	–	–	–	–	R166S
2.2	1.82	–	–	–	–	R166N
1.41	–	–	–	–	–	E252K
1.63 and 1.9	2.5	2.98 and 2.25	–	1.89	–	I329K
3.59	–	–	–	–	2.28	R341T
–	–	1.59	2.12 and 2.16	–	4.47 and 2.73	R341L
–	–	2.88	3.61	6.39	–	R341E
2.34	–	–	–	–	–	T397L
–	–	–	5.6 and 16.3	–	–	E303V
3.97 and 2.17	4.23	3.22	–	–	3.02 and 4.36	D299L
1.88	–	–	–	–	–	D299T
43.3	–	–	35.1	–	67.9 and 31.8	R335A
2.33	3.19	–	3.27	–	4.54 and 2.35	R335K
2.52	–	–	–	–	–	R335E

enrichment [1]	enrichment [2]	enrichment [3]	enrichment [4]	enrichment [5]	enrichment [6]	Variant
7.65	–	–	–	–	–	I141L
3.78 and 9.66	6.5	3.78	2.08	11.6 and 11.3	7.69 and 9.8	V56C
6.72	–	2.7	–	11.9 and 8.5	2.15	H75E
–	–	–	2.63	–	–	D425A
3.06	–	–	–	–	–	D425L
1.87	–	–	–	–	–	S13F
4.1	1.51	–	–	–	–	E111A
–	–	–	3.27	–	–	K366A
3.11 and 8.92	5.6	1.99	–	–	6.74	R379E
–	–	2.35	2.04	–	–	D420A
1.98	–	–	–	–	–	Q317R
–	–	2.41	2.33 and 1.87	–	3.23	V347E
2.64	–	–	2.19	–	–	R293E
4.55 and 5.13	6.57	1.81	1.56	10.8 and 3.63	2.38	R293A
–	–	–	2.15	–	–	E267A
–	–	–	1.9	–	–	T429L
8.86	–	–	–	–	–	Q306E
2.72	–	–	–	–	–	D162P
–	–	–	1.74	–	–	D162K
1.64	–	–	1.4	–	–	K246R
